B1: TPR t1 (parent)
chain: GACCAAUCUGCCCUCAGAGCUCGAGAACAUCUUCGGAUGCAGAGGAGGCAGGCUUCGGUGGCGCGAUAGCGCCAACGUCCUCAACCUCCAAUGCAUCCCACCACAUGAUGAUGCCUGAAGAGCCUUGGUUUUUUG

Variants of: B1
Assay: polymerase ribozyme fitness, log enrichment relative to wild type (log ratio); higher = more active; in vitro selection for triplet polymerase activity
How it was run: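 Each subunit of a heterodimeric triplet polymerase ribozyme was represented by a PCR-built, transcribed mutant library that underwent triplicate single-round in vitro selection with frozen incubation at −7 °C. Extended constructs were recovered by gel excision, streptavidin-bead capture and RT-PCR, and Illumina sequencing of input and output libraries kept genotypes with ≥10 input reads and ≥1 read per output. Fitness is the logarithm of genotype enrichment relative to wild-type enrichment, from inverse-variance-weighted replicate averages, with a logarithm base of 2.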

Compared with C11U C40G G48U G61C C97U G120U, C11G C64G is lower in “polymerase ribozyme fitness (log ratio)” value: -4.02 for the first, -6.21 for the second.

First: C11G G51A C53G C124U U131G
Second: C11G C13U U32C A68G
The “polymerase ribozyme fitness (log ratio)” value of the first is higher: -1.71 for the first, -3.2 for the second.

Going from C11G U54C to C11G G36U A43U C62U G63A C115U U125A U132A, the “polymerase ribozyme fitness (log ratio)” value falls from -0.0215 to -5.64.

Compared with C11U A26U U55C G71U, C11G G77U is higher in “polymerase ribozyme fitness (log ratio)” value: -3 for the first, 0.134 for the second.

Going from C11G C12A G36C C72U C73U to C11G G44C C79G, the “polymerase ribozyme fitness (log ratio)” value falls from -1.07 to -2.6.

First: C11U A83C G93A G120A U131C
Second: C11G C12U G42C G69C C115G
The “polymerase ribozyme fitness (log ratio)” value of the first is higher: 0.209 for the first, -6.44 for the second.

Compared with C11G C56U A111U, C11G G36C G44C U78A U87G is higher in “polymerase ribozyme fitness (log ratio)” value: -2.23 for the first, -1.77 for the second.

Compared with C11U A43G G63A, C11G G45A G52U C101A U106A A121U is higher in “polymerase ribozyme fitness (log ratio)” value: -5.66 for the first, 0.469 for the second.

First: C11G U78C A90C
Second: C11G G113U G128U
The “polymerase ribozyme fitness (log ratio)” value of the first is higher: -0.723 for the first, -3.42 for the second.

C11U A26U G52C G61U and C11G G19C G60A C123A U129C are within 0.2 log units of each other in “polymerase ribozyme fitness (log ratio)” value: -2.85 for the first, -2.66 for the second.

Compared with C11G G113U, C11G G113C is higher in “polymerase ribozyme fitness (log ratio)” value: -2.12 for the first, -1.3 for the second.

Compared with C11U A43C C76U A83U A90G, C11U A37U C49A C123U is higher in “polymerase ribozyme fitness (log ratio)” value: -3.5 for the first, 0.929 for the second.

First: C11G U59C
Second: C11G G17A C72A
The “polymerase ribozyme fitness (log ratio)” value of the first is higher: 1.4 for the first, -4.27 for the second.

First: C11G G60A
Second: C11G G60U
The “polymerase ribozyme fitness (log ratio)” value of the first is higher: 0.811 for the first, 0.25 for the second.

Compared with C11G G60C, C11U A74U G113A is lower in “polymerase ribozyme fitness (log ratio)” value: -0.354 for the first, -2.56 for the second.

First: C11G C15A A37U C99U A111C U112C
Second: C11G U21G C53A U55C
The “polymerase ribozyme fitness (log ratio)” value of the first is lower: -4.47 for the first, -0.805 for the second.

Going from C11U A75G to C11U A26U G47U, the “polymerase ribozyme fitness (log ratio)” value falls from -0.146 to -3.55.

Compared with C11U A46U G47C G52U U55C G117U, C11G G57A G58A C62A G63A is higher in “polymerase ribozyme fitness (log ratio)” value: -6.86 for the first, -3.98 for the second.

First: C11G C94U C104G G113A
Second: C11G C34U
The “polymerase ribozyme fitness (log ratio)” value of the first is lower: -5.51 for the first, -2.8 for the second.

Compared with C11G C53G, C11G G51A C53G G61U C124U U131G is lower in “polymerase ribozyme fitness (log ratio)” value: -1.43 for the first, -1.99 for the second.

Going from C11U C28U G45U G61U A84U C101A to C11G U112C, the “polymerase ribozyme fitness (log ratio)” value rises from -5.59 to 1.9.

Going from C11G C82A to C11G C22U G61A A66C, the “polymerase ribozyme fitness (log ratio)” value falls from -0.254 to -3.92.

First: C11U C34U C86G C102U A121U
Second: C11G G35A C73G U81G U109A
The “polymerase ribozyme fitness (log ratio)” value of the first is higher: -1.28 for the first, -6.69 for the second.

First: C11G A50C A75U C97A C102U
Second: C11U A84U C89U
The “polymerase ribozyme fitness (log ratio)” value of the first is lower: -4.52 for the first, -1.61 for the second.

First: C11G C70U G122U
Second: C11G G35A G60C C98U
The “polymerase ribozyme fitness (log ratio)” value of the first is higher: -0.676 for the first, -1.01 for the second.

Going from C11G C70G U116A U129C to C11G U78C C114A G120C, the “polymerase ribozyme fitness (log ratio)” value rises from -6.8 to -0.166.

Going from C11G C12G C104A U106A to C11U C40U, the “polymerase ribozyme fitness (log ratio)” value rises from -3.92 to -0.173.

Compared with C11G A29U G57A G60A C98U, C11U C13G U30G U55A C70U A108U is higher in “polymerase ribozyme fitness (log ratio)” value: -4.69 for the first, -3.69 for the second.

First: C11U A18G A50U U96A C98U G110A A121G U134G
Second: C11G G19C
The “polymerase ribozyme fitness (log ratio)” value of the first is lower: -5.84 for the first, -2.06 for the second.

Going from C11G C12U U21G A37U to C11G G17A G71U U81A C85U G117C, the “polymerase ribozyme fitness (log ratio)” value falls from -2.2 to -6.69.

Compared with C11G A41G, C11G G36A C70A is lower in “polymerase ribozyme fitness (log ratio)” value: 0.309 for the first, -1.16 for the second.

Compared with C11G G69A, C11G C15U G25C G69C A111C A118G is lower in “polymerase ribozyme fitness (log ratio)” value: -2.73 for the first, -6.31 for the second.

Going from C11G C15G A90C G110A to C11G A37G G69C C115G, the “polymerase ribozyme fitness (log ratio)” value rises from -4.74 to -3.53.

Going from C11U C15A A29C C34A G71U C79U C104A G117U to C11G G39A G120C G127C, the “polymerase ribozyme fitness (log ratio)” value rises from -6.92 to 0.971.

Going from C11G U33C C73U C99U A111C to C11U C15A C49A C73G C85A G120A, the “polymerase ribozyme fitness (log ratio)” value rises from -6.85 to -4.65.

Going from C11G A37C to C11G A46C, the “polymerase ribozyme fitness (log ratio)” value falls from -0.179 to -1.01.

Going from C11G G39A G61A to C11U A84C U92G, the “polymerase ribozyme fitness (log ratio)” value falls from -0.302 to -3.8.

Compared with C11G C20U A46G A83G A95G, C11G C101A is higher in “polymerase ribozyme fitness (log ratio)” value: -1.9 for the first, -0.692 for the second.

First: C11U C12G C56A C88U
Second: C11G U14G C15U A46C C73G C82A
The “polymerase ribozyme fitness (log ratio)” value of the first is higher: -1.97 for the first, -4.14 for the second.

Compared with C11G C49A C62A, C11U C28U is lower in “polymerase ribozyme fitness (log ratio)” value: -0.975 for the first, -1.61 for the second.

Going from C11U C28A to C11U A27U U32G A37U C62A U109A, the “polymerase ribozyme fitness (log ratio)” value falls from -3.2 to -5.82.

For C11G C28G C56G C85G, the “polymerase ribozyme fitness (log ratio)” value was -6.05.

From the RNAGym collection of RNA variant scans (doi:10.1073/pnas.2313332121)
